Residue numbers refer to the chain shown, from its start.
Experiments:
[1] = biological target: T1, FAM19A5-M5; assay: ELISA on phage-displayed FAM19A5 mutants; y axis without label; no blank in the panel, lowest bars about 0.05
T1 construct: also called FAM19A5 mutant M5
T1 FAM19A5 mutant: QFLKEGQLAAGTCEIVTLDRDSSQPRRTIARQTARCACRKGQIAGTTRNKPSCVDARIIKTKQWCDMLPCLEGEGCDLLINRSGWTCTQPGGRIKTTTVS

[2] = biological target: T2, FAM19A5 mutant M6 (human); assay: as above
T2 construct: FAM19A5 with region 6 replaced by the consensus of FAM19A1-4; The entry already carries the changes
T2 chain: T1 FAM19A5 mutant with N49A, K50R, S52A, K60L, T61Q, K62R, Q63W, D66Q, L68E, P69L

[3] = biological target: T3, FAM19A5 mutant M8 (human); assay: ELISA on phage-displayed FAM19A5 mutants; y axis without label
T3 construct: FAM19A5 with region 8 replaced by the consensus of FAM19A1-4; The entry already carries the changes
T3 chain: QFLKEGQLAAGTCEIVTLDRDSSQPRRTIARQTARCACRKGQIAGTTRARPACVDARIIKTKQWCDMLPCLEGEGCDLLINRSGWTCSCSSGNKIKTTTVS

[4] = biological target: T4, FAM19A5-M1; assay: ELISA on phage-displayed FAM19A5 mutants; y axis without label; no blank in the panel
T4 construct: also called FAM19A5 mutant M1
T4 FAM19A5 mutant: T1 FAM19A5 mutant with I15V, V16I, T17A, L18A, D19H, N49A, K50R, S52A

[5] = biological target: T5, FAM19A5-M2; assay: as above
T5 construct: also called FAM19A5 mutant M2
T5 FAM19A5 mutant: T1 FAM19A5 mutant with D21C, S22C, S23N, Q24K, P25N, N49A, K50R, S52A

[6] = biological target: T6, FAM19A5-M3; assay: as above
T6 construct: also called FAM19A5 mutant M3
T6 FAM19A5 mutant: T1 FAM19A5 mutant with R27I, T28E, I29E, A30R, R31S, N49A, K50R, S52A

[7] = biological target: T7, FAM19A5-M4; assay: as above
T7 construct: also called FAM19A5 mutant M4
T7 FAM19A5 mutant: T1 FAM19A5 mutant with A34V, R35K, A37S, R39F, K40P, N49A, K50R, S52A

[8] = biological target: T1, FAM19A5-M5; assay: as above
[9] = biological target: T2, FAM19A5 mutant M6; assay: as above
[10] = biological target: T8, FAM19A5 mutant M7 (human); assay: as above
T8 construct: FAM19A5 with region 7 replaced by the consensus of FAM19A1-4; The entry already carries the changes
T8 chain: T1 FAM19A5 mutant with N49A, K50R, S52A, G75E, D77K, L78T, I80P, N81D, R82N

[11] = biological target: T9, FAM19A5 fragment 5 mutant peptide F5-1 (#1) (human); assay: ELISA on the coated F5 mutant peptide
T9 construct: The entry already carries the alanine substitution and Ser for Cys; also called mutant peptide #1
T9 peptide: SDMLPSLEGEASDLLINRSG
Protocol: (§1) Overlapping peptide fragments (F1-F6, see FIG. 9) of the human FAM19A5 protein were synthesized and conjugated to BSA. Binding of the different anti-FAM19A5 antibodies to the BSA-conjugated peptide fragments F1-F6 was determined by Western blot analysis or ELISA assay. For the Western blot analysis, BSA-conjugated FAM19A5 fragments F1-F6 were separated by SDS polyacrylamide gel electrophoresis and transferred to a nitrocellulose membrane by the standard procedure. The membrane was incubated with the anti-FAM19A5 antibody (e.g., 1-65, 2 μg/ml, 1-65-scFv-rabbit Fc-SSS), and the antigen-antibody complexes were detected with the appropriate secondary antibody conjugated with horse-radish peroxidase (anti-rabbit IgG (Fc specific)-HRP, 1:4000 dilution). For the ELISA assay, the following protocol was used. FAM19A5 fragment F1-F6 (diluted to 1 μg/mL in 50 mM carbonate buffer (Biosesang) or to 20 μg/mL for high concentration analysis) were used to coat the wells of 96-well immuno plates (Thermo Scientific) (100 μL/well) overnight at 4° C. and then subsequently washed twice in 1×PBS. The plates were then blocked with the blocking buffer (100 μL/well) for 1 hour at room temperature. During the 1-hour incubation, the relevant anti-FAM19A5 antibodies were diluted to 1 μg/mL (or 20 μg/mL for high concentration analysis) in the diluent buffer. Once the plates were washed (2× using 1×PBS), the diluted anti-FAM19A5 antibodies were added to the appropriate wells, and the plates were incubated at room temperature for 1 hour. The plates were subsequently washed for a total of five times using the washing buffer. Next, the ODP substrate (prepared by dissolving one ODP tablet (O-phenylenediamine Dihydrochloride, Thermo) into 9 mL of sterilized deionized water and 1 mL of 10× stable Peroxide Stable buffer (Theromo)) was added to each of the wells, and the color change reaction was allowed to occur for 10 minutes. This reaction was stopped by adding 100 μL of 2N H2SO4 (Daejung) to the wells. The absorption value of each of the wells was detected at 492 nm using a 96-well microplate reader (Molecular Device).
(§2) Next, to identify the specific amino acid residues within the epitope fragment F5 that the 1-65 and P2-C12 antibodies bind to, different amino acid residues of the F5 fragment were replaced with alanine as shown in Table 9 (below).

[12] = biological target: T10, FAM19A5 fragment 5 mutant peptide F5-2 (#2) (human); assay: ELISA on the coated F5 mutant peptide
T10 construct: The entry already carries the alanine substitution and Ser for Cys; also called mutant peptide #2
Protocol: as §1, §2

[13] = biological target: T11, FAM19A5 fragment 5 mutant peptide F5-3 (#3) (human); assay: ELISA on the coated F5 mutant peptide
T11 construct: The entry already carries the alanine substitution and Ser for Cys; also called mutant peptide #3
Protocol: as §1, §2

[14] = biological target: T12, FAM19A5 fragment 5 mutant peptide F5-4 (#4) (human); assay: ELISA on the coated F5 mutant peptide
T12 construct: The entry already carries the alanine substitution and Ser for Cys; also called mutant peptide #4
Protocol: as §1, §2

[15] = biological target: T13, FAM19A5 fragment 5 mutant peptide F5-5 (#5) (human); assay: ELISA on the coated F5 mutant peptide
T13 construct: The entry already carries the alanine substitution and Ser for Cys; also called mutant peptide #5
T13 peptide: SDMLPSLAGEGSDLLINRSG
Protocol: as §1, §2

[16] = biological target: T14, FAM19A5 fragment 5 mutant peptide F5-6 (#6) (human); assay: ELISA on the coated F5 mutant peptide
T14 construct: The entry already carries the alanine substitution and Ser for Cys; also called mutant peptide #6
Protocol: as §1, §2

[17] = biological target: T15, FAM19A5 fragment 5 mutant peptide F5-8 (#8) (human); assay: ELISA on the coated F5 mutant peptide
T15 construct: The entry already carries the alanine substitution and Ser for Cys; also called mutant peptide #8
T15 peptide: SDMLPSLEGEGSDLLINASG
Protocol: as §1, §2

[18] = biological target: T2, FAM19A5 mutant M6; assay: ELISA on phage-displayed FAM19A5 mutants; y axis without label

T14 sequence (peptide, as listed by the source mutant): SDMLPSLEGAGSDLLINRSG
T10 sequence (peptide, as listed by the source mutant): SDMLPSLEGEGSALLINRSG
T11 sequence (peptide, as listed by the source mutant): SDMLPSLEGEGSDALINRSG
T12 sequence (peptide, as listed by the source mutant): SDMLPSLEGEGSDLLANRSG

B1: Anti-FAM19A5 (P2-A01) (antibody, V domains shown)
VH: QEQLVESGGRLVTPGTPLTLSCTASGFFLSGYYMSWVRQAPGKGLEWIGIIYPSGSTDYASWAKGRFTISKTSTTVDLKITTPTTEDTATYFCARVAGYVGYGYETFFDIWGPGTLVTVSL
VL: ELVMTQTPPSLSASVGETVRIRCLASEDIYSGISWYQQKPGKPPTLLIYGASNLESGVPPRFSGSGSGSDYTLTIGGVQAEDAATYYCLGGVTYSSTGTHLTFGAGTNVEIK
notes: Only variable domains are tied to the name
B1: binds [1]; binds [2].

B2: Anti-FAM19A5 (P1-F02) (antibody, V domains shown)
VH: QSLEESGGRLVTPGTPLTLTCTASGFSLSNYYMGWVRQAPGEGLEWIGIIYASGSTYYASWAKGRFTISKTSTTVDLKMTSLTTEDTATYFCARIDIGVGDYGWAYDRLDLWGQGTLVTVSS
VL: ELDMTQTPPSLSASVGETVRIRCLASEDIYSGISWYQQKPGKPPTLLIYGASNLESGVPPRFSGSGSGTDYTLTIGGVQAEDAATYYCLGGYSYSSITFGAGTNVEIK
notes: as for B1
B2: binds [1]; binds [2].

B3: Anti-FAM19A5 (P1-A08) (antibody, V domains shown)
VH: QSLEESGGRLVTPGTPLTLTCTASGFSLSTYYMSWVRQAPGKGLEWIGIVYPSGTTYYANWAKGRFTISTASTTVDLMITSPTTEDTATYFCARGDSFGYGLWGPGTLVTVSS
VL: ELVLTQSPSVQVNLGQTVSLTCTADTLSRSYASWYQQKPGQAPVLLIYRDTSRPSGVPDRFSGSSSGNTATLTISGAQAGDEADYYCATSDGSGSNYQYVFGGGTQLTVT
notes: as for B1
B3: binds [1]; binds [2].

B4: Anti-FAM19A5 (13F7) (antibody, V domains shown)
VH: QVQLQEWGAGLLKPSETLSLTCAINAESFNGYSWTWIRQTPGKGLEWIGEISHFGSANYNPSLKSRATISADKSKNQFSLKLTSVTAVDTAVYYCARALRGTYSRFYYGMDVWGQGTTVTVSS
VL: DIVMTQTPLSLPVAPGEPASISCRSSQSLLHSNGYNYLDWYVQKPGQPPQLLIYLGSNRASGVPDRFSGSGSGTDFTLKISRVEAEDVGVYYCMQARQTPLTFGGGTKVEIK
notes: as for B1
B4: no binding [3]; binds [4]; binds [5]. B4: binds [6]; binds [7]; binds [8]. B4: binds [9]; binds [10].

B5: Anti-FAM19A5 (P2-F07) (antibody, V domains shown)
VH: QSLEESGGRLVTPGTPLTLTCTASGFSLSSYYMNWVRQAPGKGLEWIGIIYPSGTTYYAGWAKGRFTISKTSTTVDLKITSPTSEDTATYFCARTVSGYFDIWGPGTLVTVSL
VL: ELDLTQTPPSLSASVGGTVTINCLASEDIYSALAWYQQKPGKPPTLLISGTSNLESGVPPRFSGSGSGTDYTLTIGGVQAEDAATYFCQGYSSYPLTFGAGTNVEIK
notes: as for B1
B5: binds [1]; binds [2].

B6: Anti-FAM19A5 (15A9) (antibody, V domains shown)
VH: QVQLQESGPGLVKPSETLSLTCTVSGGSISSYYWSWIRQPPGKGLEWIGYIYPSGSTNYNPSLKSRVTISVDTSKNQFSLNLKSVTAVDTAVYYCARVNPFGYYYAMDVWGQGTTVTVSS
VL: DIQMTQSPSSLSASVGDRITISCRASQSISTSLNWYQQTPGKAPRLLIYGASTLQSGVPSRFSGGGSGTDFSLTITSLQPEDFATYYCQESASIPRTFGQGTKLDIK
notes: as for B1
B6: binds [8].

B7: Anti-FAM19A5 (P2-C12) (antibody, V domains shown)
VH: QSLEESGGRLVTPGTPLTLTCTVSGFSLSTYAVTWVRQAPGKGLEWIGYINWRGGTSYANWAKGRFTISKTSSTTVDLKMTSPTTEDTATYFCARDASSGAAFGSYGMDPWGPGTLVTVSS
VL: ELDMTQTPSSVSAAVGGTVTIKCQASQSISSYLSWYQQKPGQPPKLLIYEASKLASGVPSRFSGSGYGTEFTLTISDLECADAATYYCQQGYSSTNVWNAFGGGTNVEIK
notes: Only variable domains are tied to the name; also called anti-FAM19A5 antibody P2-C12
For B7, the “O.D (492nm)” value [11] was 0.056, the binding result [11] was “no binding” and the “O.D (492nm)” value [12] was 3.65. The “O.D (492nm)” value [13] was 3.84, the “O.D (492nm)” value [14] was 3.86 and the “O.D (492nm)” value [15] was 3.49. The “O.D (492nm)” value [16] was 0.095, the binding result [16] was “no binding” and the “O.D (492nm)” value [17] was 0.1. B7: no binding [17]; no binding [18]; binds [1].

B8: Anti-FAM19A5 (P2-F11) (antibody, V domains shown)
VH: QEQLVESGGRLVTPGTTLTLTCTVSGFSLSSYGVSWVRQAPGKGLEWIGYIANNYNPHYASWAKGRFTISKTSSTTVDLKMTSLTTEDTATYFCARDNYGMDPWGPGTLVTVSS
VL: ELDLTQTPSSVSAAVGGTVTINCQASQSVYNNKNLAWYQQKPGQPPKLLIYAASTLASGVSSRFKGSGSGTQFTLTISDVQCDDAATYYCQGEFSCSSADCNAFGGGTELEIL
notes: as for B1
B8: binds [1].
